Results published in the nanobody polyreactivity screen of Harvey et al. (2022).

Test: yeast display, Sf9 membrane polyspecificity reagent, FACS + sequencing; frameworks hold sequencing errors
Procedure, shortened: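 A nanobody's polyreactivity label depends on the gate it was sorted from. Yeast display cells were stained with 10% biotinylated, detergent-solubilized Sf9 membrane reagent for 1 hour at 4 °C, enriched on streptavidin microbeads and sorted by FACS. The low and high (top ~1%) gates were set on anti-HA fluorescence for expression and streptavidin fluorescence for reagent binding.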

Row | Sequence | polyreactivity (PSR sort gate)
1 | QVQLVESGGGLVQAGGSLRLSCAASGSTFGPYAMGWYRQAPGKERELVADISGGSTNYADSVKGRFTISRDNAKNTVYLQMNSLKPEDTAVYYGAADSYPAYLGFVGFDYWGQGTQVTVSS | low polyreactivity
2 | QVQLVESGGGLVQAGGSLRLSCAASGLILKYYAMGWDRPAPGTEREFDAALTRRGGITYYADSVKGRFSISRDNAKNTVYLQMNSLKPEDTAVYYCAADPKLGSLAYWRYSYPLYDYWGQGTQVTVSS | low polyreactivity
3 | QVQLVESGGGLVQAGGSLRLSCAPSGFIFGLYVMGWYRQAPGKERELVAAITTSVGSTYYADSVKGRFTISRDNAKNTVYLQMNSLKPEDTAVYYCAKTSGTIDYDYWGQGTQVTVSS | low polyreactivity
4 | QVQLVESGGGLVQAGGSLRLSCAASGRTFRRYVMGWYRQAPGKERELGAAITGSGGSTYYADSVKGRFTISRDNAKNTVYLQMNSLKPEDTAVYYCAADGICFYRSYGYDYWGQGTQVNVSS | high polyreactivity
5 | QVQLVESGGGLVQARGSLRLSCAASGSIFAQYAMGWYRQAPGKERELVAAITRSTGRTYYADSVKGRFTISRDNANNTVYLQMNSLKPEDTSVYYGNARQRQSKYYPYTTFTYDYWGQGTQVTVSS | high polyreactivity
6 | QVQLVESGGGLVQAGGSLRLSCASSGSTFPRNAMGWYRQAPGKERELVAAITRSGANTHYADSVKGRFTISRDNAKNTVYLQMNSLKPEDTAVYYCAARSFTAYLGYYWGQGTQVTVSS | high polyreactivity
7 | QVQLVESGGGLVQAGGSLRLSCAASGFIFNIYGMGWYRQAPGKERELVAAISRGGSTYYADSVKGRFTISRDNAKNTGYLQMNSLTPEDTAVYYCAAVGYTLEYEYWGQGTQVTVSS | low polyreactivity
8 | QVQLVESGGGLVQAGGSLRLSCAASGRIFGGNAMGGYRQAPGKERELVAAITTGGSTNYADSVKGRFTISRDNAKNTVYLQMNSLKPEDTAVYYCNKRQSARLYGDTYDYWGQGTQVTVSS | low polyreactivity
9 | QVQLVESGGGLVQAGGSLRLSCAASGRTFYKNAMGWYRQAPGKEREFVASISVSGGRTYYADSVKGRFTISRDNAKNTVYLQMNSLKQEDTAVYYCNARASPLSQRDYWGQGTQVTVSS | low polyreactivity
10 | QVQLVESGGGLVQAGGSLRLSCAASGRTFDRNAMGWYRQAPGKERELVAAITSSGDSTYYADSVKGRFTISRDNSKNTVYLQMNSLKPEDTAVYYCAAGRRFGYWGQGTQVNVSS | high polyreactivity
11 | QVQLVESGGGLVQAGGRLRLSCAASGFTYRGNAMGWYRHAPGKERELVAAITSSDDSTYYADSVKGRFTISRDNAKITVYLQMNSLKPVDTAVYYCAAVANGYWTYEYWGQGTLVTVSS | low polyreactivity
12 | QVQLVESGGGLVQAGGSLRLSCAASGSTWVYAMGWYRQAPGKERELFAAITVSGGSTYYADSVKGRFTISRDNAKNTVYLQMNSQKPEDPAVYYCAAYDSYRKFKYLGQGTQVTVSS | high polyreactivity
13 | QVQLEESVGGLVQAGGSLRLSCAASGSTFVYYGMGWYRQAPGKERELVAAITDIGDSTNYADSVKGRFTISRDNAKNTVYLQMNSLKPDDTAVYYCAASGRSVPYYGSPRNDYWGQGTQVTVSS | low polyreactivity
14 | QVQLVESGGGLVQAGGSLRLSCAASGSTFNGNAMGWYRQAPGKERELVARISFDGTSTYYADSVKGRFTISRDNAKNTVYLQMNSLKPEDTAVDYCNVLFPRDHGFPGYGYWGQGTQVTVSS | low polyreactivity
15 | QVQLVESGGGLVQAGGSLRLSCAASGSTLEPNAMGWYRQAPGKERELVAAITIGGSTYYADSVKGRFTISRDNAKNTVYLQMNSLKPEDTAVYYCAAKSTVQRRRHTNYDYWGQGTQVTVSS | high polyreactivity
16 | QVQLVDSGGGLVQAGGSLRLSCAASGFIFPLYTMGWSRQAPGKERELVAAITGSGGSTYYADSVKGRFTISRDNEKNTVYLQMNSLKPEDSAVYYCAKDYTYGMDWGQGTQVTVSS | low polyreactivity
17 | QVQRVESGGGLVQAGGSLRLSCAASGITFDRYAMGWYRQAPGKETELVAAISSGGRTNYADSVKGRFTISRDNAKNTVYLQMNSLKPEDTEVYYCSKRRARSGQDYDYWGQGTQVTVSS | low polyreactivity
18 | QVQLVESGGGLVQAGGSLRLSCAASGFTFNKNPMGWYRQAPGKEREMVAAITSSGGSTYYADSVQGRFTISRDNAKNTVYLQMNSLKPEDTAVYYCAAYPQAFMADYEYWGQGTQVTVSS | low polyreactivity
19 | QVQLVESGGGLVQAGGSLRLSCAASGLILVHYAMGWYRQAPGKERELVAAISAGGGSTYYADSVKGRFTISRDNAKNTVYLQMTSLKPEDTAVYYCNARVVNYFRPRTGAREYDYWGQGTQVTVSS | high polyreactivity
20 | QVQLVESGGGLVQAGGSLRLSCAASGSTFRPYAMGWYRQAPGKERELVAAITFNGDTYADSVKGRFTISRDNAKNTVYLQMNSLKPEDTAVYYCNAESVSSPPYYDYWGQGTQVTVSS | high polyreactivity
21 | QVRLVESGGGLVQAGGSLRLSCAASGSIFYFNAMGWYRQAPGKERELVATIRYRGGRTYADSVKGRFTISRDNAKNTVYLQMNSLKPEDTAVYFCNTYARYAYLTGRMDYWGQGTQVTVSS | high polyreactivity
22 | QVQLVESGGGLGQAGGSLRLSCAASGRIFYSYAMGWSRQAPGKESELVAAITESGGSTNYADSVKGRFTISRDNAKNTVYLQMNSLNPEDTAVFYCNARYKLTFNLYNYWGQGTQVTVSS | low polyreactivity

Row | Sequence | polyreactivity (PSR sort gate)
23 | QVQLVESGGGLVQAGGSLRLSCAASGSIFVAYEMGWYRPAPGKERELVAAIDSVGRTNYADSVKGRFTISRDNAKNTDYLQMNSLKRVDTSVYSCNADQYYSFYDPDDYWGQGTQVTVSS | low polyreactivity
24 | QVQLVESGGGLVQAGGSLRLSCAASGSTFTTYAMGWYRQAPGKERELVAAISIRGGRTYYADSVKGRFTISRDNAKNTVYLQMNSLKPEDTAVYYCAAETYYAVSTGYDFDYWGQGTQVTVSS | high polyreactivity
25 | QVQLVESGGGLVQAGVSLRLSCAASGRIFYPYVMGWYRQAPGKERELVAAISDSTGSTYYADSVKGRFTISRDNAKNTVYLQMNSLKPEDTAVYYCAAGWFYATYWRFYYWGQGTQVTVSS | low polyreactivity
26 | QVQLVESGGGLVHAGGSLRLSCAASGSNFRYNAMGWYRQAPGKEREFYADSVKGRFTISRDNAKKTVYLQMNSLKPEDTAVYYCNATWYLWYWHDMDYWGQGTQGTVSS | low polyreactivity
27 | QVHLVESGGGLDQAGGSLRLRCAATGRTFKYYAMGWYRQAPGKERELVAAISGSGGSTYYADSVKGRFTISRDNAKNTVYLQMNSLKPEDTAVYYCAAAGKETSRYAYDSWGQGTQVTVSS | high polyreactivity
28 | QVQLVESGGGLVQAGGSLRLSCAASGRIFFWYAMGWYRQAPGKERELVASINWSGVSTYYADSVKGRFTISRDNAKNTVYLQMNSLKPEDTAVYYCNRVRGLYWQRHGYWGQGTQVTVSS | high polyreactivity
29 | QVQLVESGGGLVQAGGILRLSCAASGRIFVLNPMGWSRQAPGKERELVAASSGSGSRTYYADSVKGRFTISRDNAKNTVYLQMNSLKPEDTEVYYCNTVSRRSEHTYDYWGQGTQVTVSS | high polyreactivity
30 | QVQLVESGGGLVQAGGSLRLSCAASGSTIRTNTMGWYRQAPGKERELVAAITKSGGSTYYADSVKGRFTISRDNAKNTVYLQMNSLKPEDTAVYYCAARVLYRSGLRGDYWGQGTQVTVSS | high polyreactivity
31 | QVQLVESGGGLVQAGGILRLSCAASGSIFTRYAMGWYRQAPGKEREFVAAITWRGGRTSYADSVKGRFTISRDKAKNTVYLQMNSLKPEDTAVYYCNRRYPYRTYDYWGQGTQVTVSS | high polyreactivity
32 | QVQLVESWGGLVQAGGSLRLSCAASGRTFYSYVMGWYRKAPGKEREMVAAITSGGSTYYADSVKGRFTISRDNAKNTVYLQMNSLKPEDTAVYYCAADGDYASYDTFWYWAPEYDYWGQGTQVTVSS | low polyreactivity
33 | QVQLVESGGGLVQAGGSLRLSCAASGSILGLYAMGWYRQAPEKERELVAGISSGGNTNYADSVKGRFTISRDNAKNTVYLQMNSLKPEDTAVYYSYDRIYRHYSTYSWTRYDYWGEGTQVTVSS | high polyreactivity
34 | QVQLVESGGGLVQAGGSLRLSCAASGRIFWTNDMGWYRQAPGKERELVAVISSDTGSTDYADSVKGRFTISRDNAKNTVYLQMNSLKPEDTAVFYCNKRGLSRVNYWGQGTQVTVSS | low polyreactivity
35 | QVQLVESGGGLLQAGGSLRLSCAASGITFRFYAMGGYRQAPGKEREFVAAISCRGGRTYYADSVKGRFTISRDNAKNTVYIQMNSLKPEDTAVYYCAADFYYRTVATVTSVARYDYWGQGTQVTVSS | high polyreactivity
36 | QVQLEESGGGLVQAGGSLRLSCAASGLILRWNAMGWYRQAPGKERELVATINRGGSTNYADSVKGRFTISRDNAKNTVYLQMNSLKPEDTAVYYCYKARTSQYHHTYWRTYGYWGPGTQVTVSS | low polyreactivity
37 | QVQLVESGGGLVQAGGSLRLSCAASGSTFYTNAMGWYRPAPGKERELVAAISASVGSTYYADSVKGRFTISRDNAKNTVYLQMNSLKPEDTAVYYCAADVWASRRYDYWGQGTQVTVSS | low polyreactivity
38 | QVQLVESGGGLVQAGGSLRLSCAASGFIFAYYALGWYRQAPGKERELVAAITWSGGRTYYADSVKGRFTISRDNAKNTVYLQMNSLKPEDTAVYYCNAVRPSVDYGYWGQGTQVTVSS | high polyreactivity
39 | QVQLVESGGGIVQAGGSLRLSCAASGSIFSKYAMGWYRQAPGKERELVATISSSVGSTYYADSVKGRFTISRDNAKNTVYLQMNSLKPEDTAVYYCAARPDYEYGSHYRGGYWGQGTQVSVSS | low polyreactivity
40 | QVQLVESGGGLVQAGGSLRLSCAASGGIFRANALGWYRQAPGKERELVAAIRYSGGGTYYADSVKGRFTISRDNAKNTVYLQMNSLKPEDTAVYYCAARYRGRGYVAYDYWGQGTQVTVSS | high polyreactivity
41 | QVQLVESGGGLVQAGGSLRLSCAASGSTFDRYTLGWYRQAPGKERELVAGISNSGGSTYYADSVKGRFTISRDNAKNTVYLQMNSLKPEDTAVYYCAAAYSIRRILYYYWGQGTHVTVSS | high polyreactivity
42 | QDQLVESAVGLVQAGGSLRLSCDASGSTFDFYDIGWYRQAPGKERELVATIRWSGDTTYYADSVKGRFTISRDNAKNTVYLQMTRLKPEDTAVYYCNADYFGQESWWMDYWGQGTQVTVSS | low polyreactivity
43 | QVQLVESGGGLVQAGGSLRLSCAASGRIFIRNAMGWYRQAPGKERELVAAISRSGGRTYYADSVKGRFTISRDNAKNTVYLQMNSLKQEDTAVYYCARTTPYFNVDCGGYDYWGQGTQVTVSS | high polyreactivity
